# B1: OtsB (Escherichia coli K-12) (protein)
# chain: MTEPLTETPELSAKYAWFFDLDGTLAEIKPHPDQVVVPDNILQGLQLLATASDGALALISGRSMVELDALAKPYRFPLAGVHGAERRDINGKTHIVHLPDAIARDISVQLHTVIAQYPGAELEAKGMAFALHYRQAPQHEDALMTLAQRITQIWPQMALQQGKCVVEIKPRGTSKGEAIAAFMQEAPFIGRTPVFLGDDLTDESGFAVVNRLGGMSVKIGTGATQASWRLAGVPDVWSWLEMITTALQQKRENNRSDDYESFSRSI
# notes: expressed in E. coli
# B2: OtsB^Sf (Escherichia coli K-12) (protein)
# chain: B1 chain
# notes: purified on Ni-NTA
# Legend:
# [1] = substrate: O=P(O)(O)OC[C@H]1O[C@H](O[C@H]2O[C@H](CO)[C@@H](O)[C@H](O)[C@H]2O)[C@H](O)[C@@H](O)[C@@H]1O; experiment: continuous 1H NMR assay; format: biochemical, Escherichia coli; conditions: 37 °C
# Text: continuous 1H NMR assay on OtsB
# [2] = substrate: O=P(O)(O)OC[C@H]1O[C@H](O[C@H]2O[C@H](CO)[C@@H](O)[C@H](O)[C@H]2O)[C@H](O)[C@@H](O)[C@@H]1O; experiment: table note: endpoint HPLC; Methods: malachite green assay; format: biochemical, Escherichia coli; conditions: method note of the table (HPLC, fixed Glc, 70 °C) does not fit this enzyme
# Text: table note: endpoint HPLC; Methods: malachite green assay on OtsB^Sf
Protein,Km [1],kcat [1],kcat/Km [1],Km [2],kcat [2],kcat/Km [2]
B1,3.6 ± 0.8 mM,286 ± 34 s⁻¹,79000 M⁻¹ s⁻¹,–,–,–
B2,–,–,–,2.8 ± 0.7 mM,740 ± 96 s⁻¹,264000 M⁻¹ s⁻¹

# — doi:10.1101/2023.04.03.535218, “Distributable, Metabolic PET Reporting of Tuberculosis” (bioRxiv, 2023)
